Measured values: patent US20240117325

B1: fusion protein of ferredoxin-thioredoxin reductase (FTRB/FTRA2) and thioredoxin Y2 fused via linker peptide (GGGGS)3 of 15 amino acid residues (protein)
chain 1: AKTEPSEKSVEIMRKFSEQYARRSGTYFCVDKGVTSVVIKGLAEHKDSYGAPLCPCRHYDDKAAEVGQGFWNCPCVPMRERKECHCMLFLTPDNDFAGKDQTITSDEIKETTANMGGGGSGGGGSGGGGSAAKKQTFNSFDDLLQNSDKPVLVDFYATWCGPCQLMVPILNEVSETLKDIIAVVKIDTEKYPSLANKYQIEALPTFILFKDGKLWDRFEGALPANQLVERIENSLQVKQ
chain 2: DIAVKSAASVDADADLSSSTSLETEEDEKAKEKIGARVRVTVPLKVYHVVRVPEVELMGMEGFIKDYVVLWKGKKISANLPFKVQFVKEIEGRGPVKFFTHLKEDEFELIDPHHHHHH
B2: fusion protein of ferredoxin-thioredoxin reductase (FTRB/FTRA2) and thioredoxin Y2 fused via linker peptide (GGGGS)2 of 10 amino acid residues (protein)
chain 1: AKTEPSEKSVEIMRKFSEQYARRSGTYFCVDKGVTSVVIKGLAEHKDSYGAPLCPCRHYDDKAAEVGQGFWNCPCVPMRERKECHCMLFLTPDNDFAGKDQTITSDEIKETTANMGGGGSGGGGSAAKKQTFNSFDDLLQNSDKPVLVDFYATWCGPCQLMVPILNEVSETLKDIIAVVKIDTEKYPSLANKYQIEALPTFILFKDGKLWDRFEGALPANQLVERIENSLQVKQ
chain 2: B1 chain 2
B3: fusion protein of ferredoxin-thioredoxin reductase (FTRB/FTRA2) and thioredoxin Y2 fused via linker peptide (GGGGS)1 of 5 amino acid residues (protein)
chain 1: AKTEPSEKSVEIMRKFSEQYARRSGTYFCVDKGVTSVVIKGLAEHKDSYGAPLCPCRHYDDKAAEVGQGFWNCPCVPMRERKECHCMLFLTPDNDFAGKDQTITSDEIKETTANMGGGGSAAKKQTFNSFDDLLQNSDKPVLVDFYATWCGPCQLMVPILNEVSETLKDIIAVVKIDTEKYPSLANKYQIEALPTFILFKDGKLWDRFEGALPANQLVERIENSLQVKQ
chain 2: B1 chain 2

The proteins below were run against β-lactoglobulin.

Protein	allergenic protein degradation rate	allergenic protein residual rate	reductase activity (AMS labelling, SDS-PAGE)
B1	the degradation rate was 56%	the allergenic protein residual rate was 44%	The reduced form of the allergenic protein was detected in all of (b) to (d) in FIG. 11, confirming reductase activity
B2	the degradation rate was 58%	the allergenic protein residual rate was 42%	The reduced form of the allergenic protein was detected in all of (b) to (d) in FIG. 11, confirming reductase activity
B3	the degradation rate was 29%	the allergenic protein residual rate was 71%	The reduced form of the allergenic protein was detected in all of (b) to (d) in FIG. 11, confirming reductase activity
